Three molecules from patent publication US20030017170A1 (BURNHAM INSTITUTE, published 2003) can be followed below.

For orientation: IC50 means the midpoint of a concentration-inhibition curve. A lower IC50 goes with higher potency.

Test [1] addresses E-selectin:IgG chimera (UniProt P16581). Nature of the test: competition ELISA: inhibition of sLe^x-PAA-biotin binding to coated E-selectin:IgG. In general terms: ELISA stands for enzyme-linked immunosorbent assay.
The target in test [2] is E-selectin:IgG chimera (UniProt P16581 22-301). The description is as above.
E-selectin:IgG chimera (UniProt P16581 22-301), sequence (P16581 22-301, change not shown): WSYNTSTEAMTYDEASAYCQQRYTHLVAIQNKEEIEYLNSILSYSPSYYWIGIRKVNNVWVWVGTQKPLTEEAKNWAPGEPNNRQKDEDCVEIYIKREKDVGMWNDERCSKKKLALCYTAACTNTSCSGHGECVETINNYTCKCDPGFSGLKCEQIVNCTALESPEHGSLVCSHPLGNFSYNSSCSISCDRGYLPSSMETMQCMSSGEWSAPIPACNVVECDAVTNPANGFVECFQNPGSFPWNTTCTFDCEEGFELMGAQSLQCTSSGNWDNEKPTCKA

Positions of bridges follow the written chain, without caps; N, C: chain ends. No end group written: not given here.

E-selectin:IgG chimera (UniProt P16581), sequence (P16581 22-301, change not shown): as above

In the test with E-selectin:IgG chimera [1], IELLQAR [synthetic linear IELLQAR (SEQ ID NO:7) peptide] yielded an IC50 of 200 µM.

As for IELLQAR (also: eight copies on branched MAPS core) [IELLQAR (SEQ ID NO:7) multivalent (Fmoc eight branch) peptide], in the test with E-selectin:IgG chimera [1], the 50% inhibitory concentration (IC50) came to 10 µM.

B1: synthetic cyclic CIELLQARC (SEQ ID NO:13) peptide (peptide)
peptide: CIELLQARC
modifications: disulfide 1-9 (inferred)
notes: Synthetic peptide cyclised by a disulfide bond; also called cyclic heptapeptide
With B1, in the test with E-selectin:IgG chimera [2], the IC50 came to 100 µM.
